Patent US20220153832A1 (PIONYR IMMUNOTHERAPEUTICS, published 2022)

T1: Human Macrophage Receptor with Collagenous Structure (MARCO), full length, on cells (human, UniProt Q9UEW3 1-520)
T1 construct: the cell type is named under assay; also called huMARCO; HuMARCO
T1 sequence: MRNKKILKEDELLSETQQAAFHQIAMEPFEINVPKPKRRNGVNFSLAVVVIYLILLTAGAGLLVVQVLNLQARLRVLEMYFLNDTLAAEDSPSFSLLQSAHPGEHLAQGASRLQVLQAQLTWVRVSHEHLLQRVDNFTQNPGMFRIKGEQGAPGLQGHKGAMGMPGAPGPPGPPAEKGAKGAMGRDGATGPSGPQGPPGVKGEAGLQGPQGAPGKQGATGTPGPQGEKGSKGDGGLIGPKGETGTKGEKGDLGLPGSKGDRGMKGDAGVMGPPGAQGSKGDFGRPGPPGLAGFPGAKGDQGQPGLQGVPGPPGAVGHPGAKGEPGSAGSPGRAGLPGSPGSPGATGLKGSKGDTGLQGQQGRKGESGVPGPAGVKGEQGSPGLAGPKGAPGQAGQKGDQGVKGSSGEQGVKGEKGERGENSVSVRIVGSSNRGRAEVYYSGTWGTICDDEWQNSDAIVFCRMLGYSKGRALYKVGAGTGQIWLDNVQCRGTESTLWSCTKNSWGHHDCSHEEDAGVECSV

T2: N-terminally polyhistidine tagged human MARCO ECD (147-520), recombinant (human, UniProt Q9UEW3 147-520)
T2 construct: also called PI-RG-3000; recombinant human MARCO; not shown: N-terminal polyhistidine tag
T2 sequence: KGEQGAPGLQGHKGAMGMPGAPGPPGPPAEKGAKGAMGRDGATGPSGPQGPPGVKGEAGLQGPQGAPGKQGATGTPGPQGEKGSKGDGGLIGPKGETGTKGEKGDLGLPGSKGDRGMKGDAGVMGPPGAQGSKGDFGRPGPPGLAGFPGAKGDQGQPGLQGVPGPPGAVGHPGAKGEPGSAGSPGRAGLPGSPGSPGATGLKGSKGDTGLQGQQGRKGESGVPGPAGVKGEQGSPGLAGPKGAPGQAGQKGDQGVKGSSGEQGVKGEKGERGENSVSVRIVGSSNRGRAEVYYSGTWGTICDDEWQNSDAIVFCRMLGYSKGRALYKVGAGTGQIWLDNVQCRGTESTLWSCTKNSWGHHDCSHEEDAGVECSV


Assays:
[1] = target: T1, Human Macrophage Receptor with …; test: flow cytometry, cells overexpressing human MARCO
Protocol: Supernatants were removed and cell pellets were resuspended in Ca²⁺+ and Mg²⁺+ Dulbecco's phosphate-buffered saline (D-PBS) at 1×10⁶ cells/ml. 100,000 cells/well were plated onto U-bottom 96-well plates for staining and all centrifugation steps were performed at 1500 rpm at 4° C. for 5 min and samples were kept protected from light throughout the protocol. Cells were pelleted and resuspended in 100 μl of Zombie NIR viability dye (BioLegend) prepared by diluting Zombie NIR dimethyl sulfoxide (DMSO) stock 1000-fold in D-PBS. Cells were stained by incubation for 10 min at room temperature (RT) in the dark, followed by quenching the staining reaction with the addition of 100 μl of Staining Medium (D-PBS containing 2% FBS and 2 mM ethylenediaminetetraacetic acid (EDTA). Cells were pelleted and resuspended in 100 μl of the different antibodies and hybridomas supernatants needed for screening and corresponding isotype controls in freshly prepared staining medium, such as PI-M014 and mIgG2b isotype. All mAbs were tested at the final top concentration of 100 nM (15 μg/ml) followed by an 8-point three-fold serial dilution, including 0 mg/ml control. Staining was carried out for 1 hour (hr) on ice, followed by 2 washes in Staining Medium. Cells were then pelleted and resuspended in 100 μl of allophycocyanin (APC)-conjugated goat anti-mouse IgG (Fc-specific) secondary antibody, prepared by 500-fold dilution of the antibody stocks in Staining Medium, and incubated for 30 min on ice. […] Flow cytometry data were analyzed using FlowJo software (version 10.6.1) and data were processed and further analyzed in Microsoft Excel and GraphPad Prism software (version 8). Half-maximal effective concentrations (EC₅₀) were calculated based on geometric mean fluorescence intensities (gMFI). In case when the plates were not able to be analyzed on the cytometer, cells were pelleted after the washes and fixed in 100 μl of 2% paraformaldehyde (PFA), prepared by diluting the 16% (w/v) stock (Thermo Fisher) in DPBS, for 15 min at RT. […]

[2] = target: T2, N-terminally polyhistidine tagged human …; test: Biacore; sample oxidized with 1 mM AAPH, 6 hrs, 40 C
Protocol: (§1) (PBS)+1 mM AAPH for 6 h, 0.5 and 1.5% H₂O₂ in PBS for 24 h, which was compared to a previous experiment at 40° C. (PBS)+1 mM AAPH for 6 h. Post treatment the samples were analyzed by LC-MS/MS which identified the % modification on isolated peptides derived from the antibody after trypsin digest.
(§2) Binding of the stressed samples to recombinant human MARCO was assessed by Biacore.

[3] = target: T2, N-terminally polyhistidine tagged human …; test: Biacore; sample oxidized with 0.5% H2O2 (24 hr, RT)
Protocol: as §1, §2

[4] = target: T2, N-terminally polyhistidine tagged human …; test: ELISA readout A450-A620; the panel names no target, the legend says MARCO expressing cells; transiently made reference antibody
[5] = target: T2, N-terminally polyhistidine tagged human …; test: Biacore (SPR), binding affinity to human MARCO
Outline: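 Binding kinetics and affinity of antibodies for the N-terminally His-tagged human MARCO extracellular domain (147-520) were determined by surface plasmon resonance with multi-cycle kinetics on a Biacore T200. The antibodies were captured on a CM4 chip carrying amine-coupled anti-mouse Fc mAb (4500 RU target), and the runs were done at 25° C in 10 mM HEPES pH 7.4, 150 mM NaCl, 3 mM EDTA, 0.05% surfactant P20. The analyte was injected at 0.625–10 nM with 90 s association and 600 s dissociation, and the constants were fitted in BIAevaluation 3.1.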

EC50 [1] [nM]	Kd [2] [nM]	Kd [3] [nM]	EC50 (read off the curve) [4] [nM]	Kd [5] [nM]	Binder
0.68	–	–	–	–	PI-3010-AB (antibody, human IgG1, kappa) heavy: not shown light: DIQMTQSPASLSTSLGETVSIECLASEGISNDLAWYQQKSGKSPQLLIYAASRLQDGVPSRFSGSGSGTRYSLKISGMQPEDEADYFCQQSYKYPLTFGSGTKLEIKRTVAAPSVFIFPPSDEQLKSGTASVVCLLNNFYPREAKVQWKVDNALQSGNSQESVTEQDSKDSTYSLSSTLTLSKADYEKHKVYACEVTHQGLSSPVTKSFNRGEC
–	1.1	1.05	~0.2	0.51	PI-3015-AB (antibody, human IgG1, kappa) heavy: not shown light: DIQMTQSPSSLSASVGDRVTITCRASEGISNDLAWYQQKPGKAPKLLIYAASRLQSGVPSRFSGSGSGTDYTLTISSMQPEDFATYYCQQSYKYPLTFGQGTKLEIKRTVAAPSVFIFPPSDEQLKSGTASVVCLLNNFYPREAKVQWKVDNALQSGNSQESVTEQDSKDSTYSLSSTLTLSKADYEKHKVYACEVTHQGLSSPVTKSFNRGEC
